Laboratory results published in patent publication US20220298218A1 (ANTAG THERAPEUTICS, published 2022).
*1 amine or outer side, *2 acyl side, *3 side chain or, on linkers, in order; H or OH if unused. Where no end group is shown, it is not given here. Side-chain parts run from the residue outwards. The star is where a group is joined. C18 diacid = O=C(O)CCCCCCCCCCCCCCCCC(=O)*; γGlu = O=C(O)[C@H](CCC(=O)[*:2])N[*:1]; AEEA = NCCOCCOCC(=O)O

T1: human GIP receptor (human, UniProt P48546 22-466)
T1 sequence (looked up): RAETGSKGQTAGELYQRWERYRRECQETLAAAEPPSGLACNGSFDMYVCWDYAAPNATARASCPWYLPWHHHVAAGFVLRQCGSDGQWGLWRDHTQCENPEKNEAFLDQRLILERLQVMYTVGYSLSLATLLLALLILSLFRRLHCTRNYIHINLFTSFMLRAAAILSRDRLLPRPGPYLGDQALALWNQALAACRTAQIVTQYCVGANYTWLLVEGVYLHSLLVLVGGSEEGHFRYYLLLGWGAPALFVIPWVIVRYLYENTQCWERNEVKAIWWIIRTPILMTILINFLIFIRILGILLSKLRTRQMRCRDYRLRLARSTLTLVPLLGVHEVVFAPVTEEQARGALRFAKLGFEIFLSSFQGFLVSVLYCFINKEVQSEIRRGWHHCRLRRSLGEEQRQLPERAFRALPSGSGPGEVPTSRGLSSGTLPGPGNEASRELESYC


Target: T1, human GIP receptor
Assay: cell-based or functional assay

Binder | cAMP agonism % Emax | cAMP antagonism | cAMP antagonism % inhib | cAMP antagonism pIC50
EGTFISDYSIAMDKIK([AEEA-AEEA-γGlu-C18 diacid])QQDFVNWLLAGGPSSGAPPPS-OH (N-terminus assumed; SMILES CC[C@H](C)[C@H](NC(=O)[C@H](CO)NC(=O)[C@H](Cc1ccc(O)cc1)NC(=O)[C@H](CC(=O)O)NC(=O)[C@H](CO)NC(=O)[C@@H](NC(=O)[C@H](Cc1ccccc1)NC(=O)[C@@H](NC(=O)CNC(=O)[C@@H](N)CCC(=O)O)[C@@H](C)O)[C@@H](C)CC)C(=O)N[C@@H](C)C(=O)N[C@@H](CCSC)C(=O)N[C@@H](CC(=O)O)C(=O)N[C@@H](CCCCN)C(=O)N[C@H](C(=O)N[C@@H](CCCCNC(=O)COCCOCCNC(=O)COCCOCCNC(=O)CC[C@H](NC(=O)CCCCCCCCCCCCCCCCC(=O)O)C(=O)O)C(=O)N[C@@H](CCC(N)=O)C(=O)N[C@@H](CCC(N)=O)C(=O)N[C@@H](CC(=O)O)C(=O)N[C@@H](Cc1ccccc1)C(=O)N[C@H](C(=O)N[C@@H](CC(N)=O)C(=O)N[C@@H](Cc1c[nH]c2ccccc12)C(=O)N[C@@H](CC(C)C)C(=O)N[C@@H](CC(C)C)C(=O)N[C@@H](C)C(=O)NCC(=O)NCC(=O)N1CCC[C@H]1C(=O)N[C@@H](CO)C(=O)N[C@@H](CO)C(=O)NCC(=O)N[C@@H](C)C(=O)N1CCC[C@H]1C(=O)N1CCC[C@H]1C(=O)N1CCC[C@H]1C(=O)N[C@@H](CO)C(=O)O)C(C)C)[C@@H](C)CC) [AT592] | 0% | 6.31 nM | 88% | 8.2
EGTFISDYSIAMDKIK([AEEA-AEEA-γGlu-C18 diacid])QQDFVNWLLAGGPSSGAPPPS-NH2 (N-terminus assumed; SMILES CC[C@H](C)[C@H](NC(=O)[C@H](CO)NC(=O)[C@H](Cc1ccc(O)cc1)NC(=O)[C@H](CC(=O)O)NC(=O)[C@H](CO)NC(=O)[C@@H](NC(=O)[C@H](Cc1ccccc1)NC(=O)[C@@H](NC(=O)CNC(=O)[C@@H](N)CCC(=O)O)[C@@H](C)O)[C@@H](C)CC)C(=O)N[C@@H](C)C(=O)N[C@@H](CCSC)C(=O)N[C@@H](CC(=O)O)C(=O)N[C@@H](CCCCN)C(=O)N[C@H](C(=O)N[C@@H](CCCCNC(=O)COCCOCCNC(=O)COCCOCCNC(=O)CC[C@H](NC(=O)CCCCCCCCCCCCCCCCC(=O)O)C(=O)O)C(=O)N[C@@H](CCC(N)=O)C(=O)N[C@@H](CCC(N)=O)C(=O)N[C@@H](CC(=O)O)C(=O)N[C@@H](Cc1ccccc1)C(=O)N[C@H](C(=O)N[C@@H](CC(N)=O)C(=O)N[C@@H](Cc1c[nH]c2ccccc12)C(=O)N[C@@H](CC(C)C)C(=O)N[C@@H](CC(C)C)C(=O)N[C@@H](C)C(=O)NCC(=O)NCC(=O)N1CCC[C@H]1C(=O)N[C@@H](CO)C(=O)N[C@@H](CO)C(=O)NCC(=O)N[C@@H](C)C(=O)N1CCC[C@H]1C(=O)N1CCC[C@H]1C(=O)N1CCC[C@H]1C(=O)N[C@@H](CO)C(N)=O)C(C)C)[C@@H](C)CC) [AT591] | 0% | 21.5 nM | 92% | 7.7
EGTFISDYSIAMDKIK([AEEA-AEEA-γGlu-C18 diacid])QQDFVNWLLAQKGPSSGAPPPS [AT589] | 0% | 5.84 nM | 95% | 8.2
EGTFISDYSIAMDKIK([AEEA-AEEA-γGlu-C18 diacid])QQDFVNWLLAQKPSSGAPPPS-NH2 (N-terminus assumed; SMILES CC[C@H](C)[C@H](NC(=O)[C@H](CO)NC(=O)[C@H](Cc1ccc(O)cc1)NC(=O)[C@H](CC(=O)O)NC(=O)[C@H](CO)NC(=O)[C@@H](NC(=O)[C@H](Cc1ccccc1)NC(=O)[C@@H](NC(=O)CNC(=O)[C@@H](N)CCC(=O)O)[C@@H](C)O)[C@@H](C)CC)C(=O)N[C@@H](C)C(=O)N[C@@H](CCSC)C(=O)N[C@@H](CC(=O)O)C(=O)N[C@@H](CCCCN)C(=O)N[C@H](C(=O)N[C@@H](CCCCNC(=O)COCCOCCNC(=O)COCCOCCNC(=O)CC[C@H](NC(=O)CCCCCCCCCCCCCCCCC(=O)O)C(=O)O)C(=O)N[C@@H](CCC(N)=O)C(=O)N[C@@H](CCC(N)=O)C(=O)N[C@@H](CC(=O)O)C(=O)N[C@@H](Cc1ccccc1)C(=O)N[C@H](C(=O)N[C@@H](CC(N)=O)C(=O)N[C@@H](Cc1c[nH]c2ccccc12)C(=O)N[C@@H](CC(C)C)C(=O)N[C@@H](CC(C)C)C(=O)N[C@@H](C)C(=O)N[C@@H](CCC(N)=O)C(=O)N[C@@H](CCCCN)C(=O)N1CCC[C@H]1C(=O)N[C@@H](CO)C(=O)N[C@@H](CO)C(=O)NCC(=O)N[C@@H](C)C(=O)N1CCC[C@H]1C(=O)N1CCC[C@H]1C(=O)N1CCC[C@H]1C(=O)N[C@@H](CO)C(N)=O)C(C)C)[C@@H](C)CC) [AT587] | 0% | 3.98 nM | 90% | 8.4
EGTFISDYSIAMDKK([AEEA-AEEA-γGlu-C18 diacid])HQQDFVNWLLAQKPSSGAPPPS-NH2 (N-terminus assumed; SMILES CC[C@H](C)[C@H](NC(=O)[C@H](CO)NC(=O)[C@H](Cc1ccc(O)cc1)NC(=O)[C@H](CC(=O)O)NC(=O)[C@H](CO)NC(=O)[C@@H](NC(=O)[C@H](Cc1ccccc1)NC(=O)[C@@H](NC(=O)CNC(=O)[C@@H](N)CCC(=O)O)[C@@H](C)O)[C@@H](C)CC)C(=O)N[C@@H](C)C(=O)N[C@@H](CCSC)C(=O)N[C@@H](CC(=O)O)C(=O)N[C@@H](CCCCN)C(=O)N[C@@H](CCCCNC(=O)COCCOCCNC(=O)COCCOCCNC(=O)CC[C@H](NC(=O)CCCCCCCCCCCCCCCCC(=O)O)C(=O)O)C(=O)N[C@@H](Cc1c[nH]cn1)C(=O)N[C@@H](CCC(N)=O)C(=O)N[C@@H](CCC(N)=O)C(=O)N[C@@H](CC(=O)O)C(=O)N[C@@H](Cc1ccccc1)C(=O)N[C@H](C(=O)N[C@@H](CC(N)=O)C(=O)N[C@@H](Cc1c[nH]c2ccccc12)C(=O)N[C@@H](CC(C)C)C(=O)N[C@@H](CC(C)C)C(=O)N[C@@H](C)C(=O)N[C@@H](CCC(N)=O)C(=O)N[C@@H](CCCCN)C(=O)N1CCC[C@H]1C(=O)N[C@@H](CO)C(=O)N[C@@H](CO)C(=O)NCC(=O)N[C@@H](C)C(=O)N1CCC[C@H]1C(=O)N1CCC[C@H]1C(=O)N1CCC[C@H]1C(=O)N[C@@H](CO)C(N)=O)C(C)C) [AT586] | 0% | 25.1 nM | 80% | 7.6
EGTFISDYSIAMDKIK([AEEA-AEEA-γGlu-C18 diacid])QQDFVNWLLAQGPSSGAPPPS-NH2 (N-terminus assumed; SMILES CC[C@H](C)[C@H](NC(=O)[C@H](CO)NC(=O)[C@H](Cc1ccc(O)cc1)NC(=O)[C@H](CC(=O)O)NC(=O)[C@H](CO)NC(=O)[C@@H](NC(=O)[C@H](Cc1ccccc1)NC(=O)[C@@H](NC(=O)CNC(=O)[C@@H](N)CCC(=O)O)[C@@H](C)O)[C@@H](C)CC)C(=O)N[C@@H](C)C(=O)N[C@@H](CCSC)C(=O)N[C@@H](CC(=O)O)C(=O)N[C@@H](CCCCN)C(=O)N[C@H](C(=O)N[C@@H](CCCCNC(=O)COCCOCCNC(=O)COCCOCCNC(=O)CC[C@H](NC(=O)CCCCCCCCCCCCCCCCC(=O)O)C(=O)O)C(=O)N[C@@H](CCC(N)=O)C(=O)N[C@@H](CCC(N)=O)C(=O)N[C@@H](CC(=O)O)C(=O)N[C@@H](Cc1ccccc1)C(=O)N[C@H](C(=O)N[C@@H](CC(N)=O)C(=O)N[C@@H](Cc1c[nH]c2ccccc12)C(=O)N[C@@H](CC(C)C)C(=O)N[C@@H](CC(C)C)C(=O)N[C@@H](C)C(=O)N[C@@H](CCC(N)=O)C(=O)NCC(=O)N1CCC[C@H]1C(=O)N[C@@H](CO)C(=O)N[C@@H](CO)C(=O)NCC(=O)N[C@@H](C)C(=O)N1CCC[C@H]1C(=O)N1CCC[C@H]1C(=O)N1CCC[C@H]1C(=O)N[C@@H](CO)C(N)=O)C(C)C)[C@@H](C)CC) [AT590] | 0% | 5.41 nM | 93% | 8.3
EGTFISDYSIAMDKIK([AEEA-AEEA-γGlu-C18 diacid])QQDFVNWLLAQKGPSSGAPPPS-NH2 (N-terminus assumed; SMILES CC[C@H](C)[C@H](NC(=O)[C@H](CO)NC(=O)[C@H](Cc1ccc(O)cc1)NC(=O)[C@H](CC(=O)O)NC(=O)[C@H](CO)NC(=O)[C@@H](NC(=O)[C@H](Cc1ccccc1)NC(=O)[C@@H](NC(=O)CNC(=O)[C@@H](N)CCC(=O)O)[C@@H](C)O)[C@@H](C)CC)C(=O)N[C@@H](C)C(=O)N[C@@H](CCSC)C(=O)N[C@@H](CC(=O)O)C(=O)N[C@@H](CCCCN)C(=O)N[C@H](C(=O)N[C@@H](CCCCNC(=O)COCCOCCNC(=O)COCCOCCNC(=O)CC[C@H](NC(=O)CCCCCCCCCCCCCCCCC(=O)O)C(=O)O)C(=O)N[C@@H](CCC(N)=O)C(=O)N[C@@H](CCC(N)=O)C(=O)N[C@@H](CC(=O)O)C(=O)N[C@@H](Cc1ccccc1)C(=O)N[C@H](C(=O)N[C@@H](CC(N)=O)C(=O)N[C@@H](Cc1c[nH]c2ccccc12)C(=O)N[C@@H](CC(C)C)C(=O)N[C@@H](CC(C)C)C(=O)N[C@@H](C)C(=O)N[C@@H](CCC(N)=O)C(=O)N[C@@H](CCCCN)C(=O)NCC(=O)N1CCC[C@H]1C(=O)N[C@@H](CO)C(=O)N[C@@H](CO)C(=O)NCC(=O)N[C@@H](C)C(=O)N1CCC[C@H]1C(=O)N1CCC[C@H]1C(=O)N1CCC[C@H]1C(=O)N[C@@H](CO)C(N)=O)C(C)C)[C@@H](C)CC) [AT588] | 0% | 23.3 nM | 97% | 7.6
